Measured values as given in US20110105394A1 (Novo Nordisk, published 2011).
*1 amine or outer side, *2 acyl side, *3 side chain or, on linkers, in order; H or OH if unused. Bridges are numbered along the chain shown (N, C = ends). Where no end group is shown, it is not given here. The star is where a group is joined. X2 = (S)‑4‑Carboxy‑4‑(19-carboxynonadecanoylamino)butyryl, O=C(O)CCCCCCCCCCCCCCCCCCC(=O)N[C@@H](CCC(=O)*)C(=O)O; C20 diacid = O=C(O)CCCCCCCCCCCCCCCCCCC(=O)*; C18 diacid = O=C(O)CCCCCCCCCCCCCCCCC(=O)*; γGlu = O=C(O)[C@H](CCC(=O)[*:2])N[*:1]; AEEA = NCCOCCOCC(=O)O

B1: N-alpha-[(S)-4-Carboxy-4-(19-carboxynonadecanoylamino)butyryl]-[His17,Asp31]-pramlintide (2-37) (peptide)
peptide: {C20 diacid-γGlu}-CNTATCATQRLANFLHHSSNNFGPILPPTDVGSNTY-NH2
modifications: disulfide 1-6
SMILES: CC[C@H](C)[C@H](NC(=O)[C@@H]1CCCN1C(=O)CNC(=O)[C@H](Cc1ccccc1)NC(=O)[C@H](CC(N)=O)NC(=O)[C@H](CC(N)=O)NC(=O)[C@H](CO)NC(=O)[C@H](CO)NC(=O)[C@H](Cc1c[nH]cn1)NC(=O)[C@H](Cc1c[nH]cn1)NC(=O)[C@H](CC(C)C)NC(=O)[C@H](Cc1ccccc1)NC(=O)[C@H](CC(N)=O)NC(=O)[C@H](C)NC(=O)[C@H](CC(C)C)NC(=O)[C@H](CCCNC(=N)N)NC(=O)[C@H](CCC(N)=O)NC(=O)[C@@H](NC(=O)[C@H](C)NC(=O)[C@@H]1CSSC[C@H](NC(=O)CC[C@H](NC(=O)CCCCCCCCCCCCCCCCCCC(=O)O)C(=O)O)C(=O)N[C@@H](CC(N)=O)C(=O)N[C@@H]([C@@H](C)O)C(=O)N[C@@H](C)C(=O)N[C@@H]([C@@H](C)O)C(=O)N1)[C@@H](C)O)C(=O)N[C@@H](CC(C)C)C(=O)N1CCC[C@H]1C(=O)N1CCC[C@H]1C(=O)N[C@H](C(=O)N[C@@H](CC(=O)O)C(=O)N[C@H](C(=O)NCC(=O)N[C@@H](CO)C(=O)N[C@@H](CC(N)=O)C(=O)N[C@H](C(=O)N[C@@H](Cc1ccc(O)cc1)C(N)=O)[C@@H](C)O)C(C)C)[C@@H](C)O
B2: N-alpha-[(S)-4-Carboxy-4-(19-carboxynonadecanoylamino)butyryl]-Glu-Arg-[Glu1,Arg17,Ala25,Pro26,Ser28,Ser29]-pramlintide (peptide)
peptide: X2-ERECNTATCATQRLANFLRHSSNNFGAPLSSTNVGSNTY-NH2
modifications: disulfide 4-9
SMILES: CC(C)C[C@H](NC(=O)[C@H](CCCNC(=N)N)NC(=O)[C@H](CCC(N)=O)NC(=O)[C@@H](NC(=O)[C@H](C)NC(=O)[C@@H]1CSSC[C@H](NC(=O)[C@H](CCC(=O)O)NC(=O)[C@H](CCCNC(=N)N)NC(=O)[C@H](CCC(=O)O)NC(=O)CC[C@H](NC(=O)CCCCCCCCCCCCCCCCCCC(=O)O)C(=O)O)C(=O)N[C@@H](CC(N)=O)C(=O)N[C@@H]([C@@H](C)O)C(=O)N[C@@H](C)C(=O)N[C@@H]([C@@H](C)O)C(=O)N1)[C@@H](C)O)C(=O)N[C@@H](C)C(=O)N[C@@H](CC(N)=O)C(=O)N[C@@H](Cc1ccccc1)C(=O)N[C@@H](CC(C)C)C(=O)N[C@@H](CCCNC(=N)N)C(=O)N[C@@H](Cc1c[nH]cn1)C(=O)N[C@@H](CO)C(=O)N[C@@H](CO)C(=O)N[C@@H](CC(N)=O)C(=O)N[C@@H](CC(N)=O)C(=O)N[C@@H](Cc1ccccc1)C(=O)NCC(=O)N[C@@H](C)C(=O)N1CCC[C@H]1C(=O)N[C@@H](CC(C)C)C(=O)N[C@@H](CO)C(=O)N[C@@H](CO)C(=O)N[C@H](C(=O)N[C@@H](CC(N)=O)C(=O)N[C@H](C(=O)NCC(=O)N[C@@H](CO)C(=O)N[C@@H](CC(N)=O)C(=O)N[C@H](C(=O)N[C@@H](Cc1ccc(O)cc1)C(N)=O)[C@@H](C)O)C(C)C)[C@@H](C)O
B3: N-alpha-[(S)-4-Carboxy-4-(19-carboxynonadecanoylamino)butyryl]-Glu-[Glu1,Arg17]-pramlintide (peptide)
peptide: EECNTATCATQRLANFLRHSSNNFGPILPPTNVGSNTY-NH2
modifications: disulfide 3-8; not fully specified (N-terminus); printed as N-alpha-[(S)-4-Carboxy-4-(19-carboxynonadecanoylamino)butyryl]-Glu-[Glu1,Arg17]-pramlintide
B4: N-alpha-[2-(2-{2-[2-(2-{2-[(S)-4-Carboxy-4-(17-carboxyheptadecanoylamino)butyrylamino]ethoxy}ethoxy)acetylamino]ethoxy}ethoxy)acetyl][Arg1,His17]-pramlintide (peptide)
peptide: {C18 diacid-γGlu-AEEA-AEEA}-RCNTATCATQRLANFLHHSSNNFGPILPPTNVGSNTY-NH2
modifications: disulfide 2-7
SMILES: CC[C@H](C)[C@H](NC(=O)[C@@H]1CCCN1C(=O)CNC(=O)[C@H](Cc1ccccc1)NC(=O)[C@H](CC(N)=O)NC(=O)[C@H](CC(N)=O)NC(=O)[C@H](CO)NC(=O)[C@H](CO)NC(=O)[C@H](Cc1c[nH]cn1)NC(=O)[C@H](Cc1c[nH]cn1)NC(=O)[C@H](CC(C)C)NC(=O)[C@H](Cc1ccccc1)NC(=O)[C@H](CC(N)=O)NC(=O)[C@H](C)NC(=O)[C@H](CC(C)C)NC(=O)[C@H](CCCNC(=N)N)NC(=O)[C@H](CCC(N)=O)NC(=O)[C@@H](NC(=O)[C@H](C)NC(=O)[C@@H]1CSSC[C@H](NC(=O)[C@H](CCCNC(=N)N)NC(=O)COCCOCCNC(=O)COCCOCCNC(=O)CC[C@H](NC(=O)CCCCCCCCCCCCCCCCC(=O)O)C(=O)O)C(=O)N[C@@H](CC(N)=O)C(=O)N[C@@H]([C@@H](C)O)C(=O)N[C@@H](C)C(=O)N[C@@H]([C@@H](C)O)C(=O)N1)[C@@H](C)O)C(=O)N[C@@H](CC(C)C)C(=O)N1CCC[C@H]1C(=O)N1CCC[C@H]1C(=O)N[C@H](C(=O)N[C@@H](CC(N)=O)C(=O)N[C@H](C(=O)NCC(=O)N[C@@H](CO)C(=O)N[C@@H](CC(N)=O)C(=O)N[C@H](C(=O)N[C@@H](Cc1ccc(O)cc1)C(N)=O)[C@@H](C)O)C(C)C)[C@@H](C)O
B5: N-alpha-[3-(2-{2-[2-(2-{2-[2-(2-{2-[(S)-4-Carboxy-4-(17-carboxyheptadecanoylamino) … (peptide)
peptide: RCNTATCATQRLANFLHHSSNNFGPILPPTNVGSNTY-NH2
modifications: disulfide 2-7; not fully specified (N-terminus); printed as N-alpha-[3-(2-{2-[2-(2-{2-[2-(2-{2-[(S)-4-Carboxy-4-(17-carboxyheptadecanoylamino) butyrylamino]ethoxy}ethoxy)ethoxy]ethoxy}ethoxy)ethoxy]ethoxy}ethoxy)propionylamino][Arg1,His17]-pramlintide
B6: N-alpha-[(S)-4-Carboxy-4-(19-carboxynonadecanoylamino)butyryl]-His-[His1,His17,Arg18]-pramlintide (peptide)
peptide: HHCNTATCATQRLANFLHRSSNNFGPILPPTNVGSNTY-NH2
modifications: disulfide 3-8; not fully specified (N-terminus); printed as N-alpha-[(S)-4-Carboxy-4-(19-carboxynonadecanoylamino)butyryl]-His-[His1,His17,Arg18]-pramlintide
B7: N-alpha-[(S)-4-Carboxy-4-(19-carboxynonadecanoylamino)butyryl]-Glu-[Glu1,His17]-pramlintide (peptide)
peptide: EECNTATCATQRLANFLHHSSNNFGPILPPTNVGSNTY-NH2
modifications: disulfide 3-8; not fully specified (N-terminus); printed as N-alpha-[(S)-4-Carboxy-4-(19-carboxynonadecanoylamino)butyryl]-Glu-[Glu1,His17]-pramlintide
B8: N-alpha-[(S)-4-Carboxy-4-(19-carboxynonadecanoylamino)butyryl]-[Glu 1,His17]-pramlintide (peptide)
peptide: {C20 diacid-γGlu}-ECNTATCATQRLANFLHHSSNNFGPILPPTNVGSNTY-NH2
modifications: disulfide 2-7
SMILES: CC[C@H](C)[C@H](NC(=O)[C@@H]1CCCN1C(=O)CNC(=O)[C@H](Cc1ccccc1)NC(=O)[C@H](CC(N)=O)NC(=O)[C@H](CC(N)=O)NC(=O)[C@H](CO)NC(=O)[C@H](CO)NC(=O)[C@H](Cc1c[nH]cn1)NC(=O)[C@H](Cc1c[nH]cn1)NC(=O)[C@H](CC(C)C)NC(=O)[C@H](Cc1ccccc1)NC(=O)[C@H](CC(N)=O)NC(=O)[C@H](C)NC(=O)[C@H](CC(C)C)NC(=O)[C@H](CCCNC(=N)N)NC(=O)[C@H](CCC(N)=O)NC(=O)[C@@H](NC(=O)[C@H](C)NC(=O)[C@@H]1CSSC[C@H](NC(=O)[C@H](CCC(=O)O)NC(=O)CC[C@H](NC(=O)CCCCCCCCCCCCCCCCCCC(=O)O)C(=O)O)C(=O)N[C@@H](CC(N)=O)C(=O)N[C@@H]([C@@H](C)O)C(=O)N[C@@H](C)C(=O)N[C@@H]([C@@H](C)O)C(=O)N1)[C@@H](C)O)C(=O)N[C@@H](CC(C)C)C(=O)N1CCC[C@H]1C(=O)N1CCC[C@H]1C(=O)N[C@H](C(=O)N[C@@H](CC(N)=O)C(=O)N[C@H](C(=O)NCC(=O)N[C@@H](CO)C(=O)N[C@@H](CC(N)=O)C(=O)N[C@H](C(=O)N[C@@H](Cc1ccc(O)cc1)C(N)=O)[C@@H](C)O)C(C)C)[C@@H](C)O
B9: N-alpha-[(S)-4-Carboxy-4-(19-carboxynonadecanoylamino)butyryl]-Glu-Arg-[Glu1,Asp14,His17,Gln21,Ala25,Pro26,Ser28,Ser29]-pramlintide (peptide)
peptide: X2-ERECNTATCATQRLADFLHHSSQNFGAPLSSTNVGSNTY-NH2
modifications: disulfide 4-9
SMILES: CC(C)C[C@H](NC(=O)[C@H](CCCNC(=N)N)NC(=O)[C@H](CCC(N)=O)NC(=O)[C@@H](NC(=O)[C@H](C)NC(=O)[C@@H]1CSSC[C@H](NC(=O)[C@H](CCC(=O)O)NC(=O)[C@H](CCCNC(=N)N)NC(=O)[C@H](CCC(=O)O)NC(=O)CC[C@H](NC(=O)CCCCCCCCCCCCCCCCCCC(=O)O)C(=O)O)C(=O)N[C@@H](CC(N)=O)C(=O)N[C@@H]([C@@H](C)O)C(=O)N[C@@H](C)C(=O)N[C@@H]([C@@H](C)O)C(=O)N1)[C@@H](C)O)C(=O)N[C@@H](C)C(=O)N[C@@H](CC(=O)O)C(=O)N[C@@H](Cc1ccccc1)C(=O)N[C@@H](CC(C)C)C(=O)N[C@@H](Cc1c[nH]cn1)C(=O)N[C@@H](Cc1c[nH]cn1)C(=O)N[C@@H](CO)C(=O)N[C@@H](CO)C(=O)N[C@@H](CCC(N)=O)C(=O)N[C@@H](CC(N)=O)C(=O)N[C@@H](Cc1ccccc1)C(=O)NCC(=O)N[C@@H](C)C(=O)N1CCC[C@H]1C(=O)N[C@@H](CC(C)C)C(=O)N[C@@H](CO)C(=O)N[C@@H](CO)C(=O)N[C@H](C(=O)N[C@@H](CC(N)=O)C(=O)N[C@H](C(=O)NCC(=O)N[C@@H](CO)C(=O)N[C@@H](CC(N)=O)C(=O)N[C@H](C(=O)N[C@@H](Cc1ccc(O)cc1)C(N)=O)[C@@H](C)O)C(C)C)[C@@H](C)O

What follows are binders tested against T1, Amylin 3(a) receptor (human calcitonin receptor (CTa) with RAMP-3) (human, UniProt P30988 25-474; O60896 24-148, limits assumed) (assay: cell-based or functional assay).
T1 sequence (looked up) 1: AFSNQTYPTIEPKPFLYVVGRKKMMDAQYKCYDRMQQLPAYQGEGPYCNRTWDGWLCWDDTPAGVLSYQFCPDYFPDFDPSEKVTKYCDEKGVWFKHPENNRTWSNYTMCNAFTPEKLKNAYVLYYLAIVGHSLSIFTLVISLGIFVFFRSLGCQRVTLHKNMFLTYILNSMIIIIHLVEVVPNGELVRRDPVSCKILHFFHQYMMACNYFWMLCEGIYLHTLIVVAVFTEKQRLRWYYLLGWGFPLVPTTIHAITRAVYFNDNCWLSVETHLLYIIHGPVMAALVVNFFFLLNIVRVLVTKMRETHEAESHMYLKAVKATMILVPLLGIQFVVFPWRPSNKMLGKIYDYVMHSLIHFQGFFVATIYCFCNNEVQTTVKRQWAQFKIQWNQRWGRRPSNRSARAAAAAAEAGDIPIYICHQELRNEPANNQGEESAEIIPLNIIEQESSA
T1 sequence (looked up) 2: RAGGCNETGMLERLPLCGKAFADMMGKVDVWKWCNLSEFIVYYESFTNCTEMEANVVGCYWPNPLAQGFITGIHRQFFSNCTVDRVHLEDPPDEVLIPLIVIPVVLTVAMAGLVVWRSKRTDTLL

In order of rising “Potency Luciferase” value:
1. B4  0.03 nM
2. B1  0.06 nM
3. B9  0.06 nM
4. B5  0.08 nM
5. {C20 diacid-γGlu}-CNTATCATQRLANFLHHSSNNFGPILPPTNVGSNTY-NH2 (disulfide 1-6) [N-alpha-[(S)-4-Carboxy-4-(19-carboxynonadecanoylamino)butyryl]-[His17]-pramlintide (2-37)]  0.1 nM
6. B2  0.2 nM
7. B6  0.2 nM
8. B8  0.2 nM
9. B3  0.3 nM
10. B7  0.3 nM
